Earlier results, collected in paper PMC3138048.

Biological target: Lys199 (UniProt position 223, AKQRLKCASLQ)
Experiment: chemical modification

## Human serum albumin (HSA) (Homo sapiens)
  pKa: 7.9
